The experiment has as its target HA ectodomain of B/Florida/4/2006 (influenza B virus B/Florida/4/2006 (Yamagata lineage)). Description: negative stain EM reconstruction.

On to “HA ectodomain of B/Florida/4/2006 (domain or fragment)”, for which the stoichiometry N stood at 3.

(Values after publication PMC3538841.)
